Values quoted from earlier work, collected in publication PMC10379010, “Short Peptides of Innate Immunity Protein Tag7 (PGLYRP1) Selectively Induce Inhibition or Activation of Tumor Cell Death via TNF Receptor” (International Journal of Molecular Sciences, 2023).

Test system: TNFR1
Set-up: method as in 3 sources, ref [14] = [14]; PMID 32093269; doi:10.3390/cells9020488; 14. Romanova E.A. Sharapova T.N. Telegin G.B. Minakov A.N. Chernov A.S. Ivanova O.K. Bychkov M.L. Sashchenko L.P. Yashin D.V. A 12-mer Peptide of Tag7 (PGLYRP1) Forms a Cytotoxic Complex with Hsp70 an ||| ref [15] = [15]; PMID 34163464; doi:10.3389/fimmu.2021.622471; 15. Telegin G.B. Chernov A.S. Kazakov V.A. Romanova E.A. Sharapova T.N. Yashin D.V. Gabibov A.G. Sashchenko L.P. A 8-mer Peptide of PGLYRP1/Tag7 Innate Immunity Protein Binds to TNFR1 Receptor and Inh ||| ref [10],[11] = [10]; PMID 26183779; doi:10.1074/jbc.M115.639732; 10. Yashin D.V. Ivanova O.K. Soshnikova N.V. Sheludchenkov A.A. Romanova E.A. Dukhanina E.A. Tonevitsky A.G. Gnuchev N.V. Gabibov A.G. Georgiev G.P. Tag7 (PGLYRP1) in Complex with Hsp70 Induces Altern || [11]; PMID 32636466; doi:10.1038/s41598-020-68088-x; 11. Sharapova T.N. Romanova E.A. Soshnikova N.V. Belogurov A.A. Jr. Lomakin Y.A. Sashchenko L.P. Yashin D.V. Autoantibodies from SLE patients induce programmed cell death in murine fibroblast cells th
Details: death under action of a specific ligand of TNFR1 or DNA-hydrolyzing autoantibodies; ref [10],[11]

B1: Tag7: innate immunity protein Tag7 (PGLYRP1), ligand of the TNFR1 receptor; recombinant (protein)
chain: QETEDPACCSPIVPRNEWKALASECAQHLSLPLRYVVVSHTAGSSCNTPASCQQQARNVQHYHMKTLGWCDVGYNFLIGEDGLVYEGRGWNFTGAHSGHLWNPMSIGISFMGNYMDRVPTPQAIRAAQGLLACGVAQGALRSNYVLKGHRDVQRTLSPGNQLYHLIQNWPHYRSP
  Inhibition of death of tumor cells, Tag7: inhibits the death of tumor cells
